The target of one assay is T1, TWEAK (human, UniProt O43508 94-249, limits assumed).
T1 construct: The method paragraph says only 'TWEAK'; also called human TWEAK; TNF-related weak inducer of apoptosis
T1 sequence (looked up): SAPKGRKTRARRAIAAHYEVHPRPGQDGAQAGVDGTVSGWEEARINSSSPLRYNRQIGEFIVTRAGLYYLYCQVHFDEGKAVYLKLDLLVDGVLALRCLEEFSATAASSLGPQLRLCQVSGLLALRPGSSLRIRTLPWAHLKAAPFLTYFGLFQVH
Kind of assay: SPR (Biacore), TWEAK amine-coupled on C1 chip, bispecific antibody as analyte, 1:1 Langmuir. The procedure:
Around 100 RU of TWEAK was immobilized on the C1 chip surface at pH 5.0 using an amine coupling kit supplied by the GE Healthcare. The sample and system buffer was PBS-T (10 mM phosphate buffered saline including 0.05% Tween 20) pH 7.4. Association was measured by injection the bispecific antibody in various concentrations in solution for 3 min at a flow of 30 μl/min starting with 50 nM in 1:1 serial dilutions. The dissociation phase was monitored for up to 10 min and triggered by switching from the sample solution to running buffer. The surface was regenerated three times by 30 sec wash with a 3 M MgCl2 solution at a flow rate of 30 μl/min. Bulk refractive index differences were corrected by subtracting the response obtained from a blank-coupled surface. Blank injections are also subtracted (=double referencing). For calculation of KD and other kinetic parameters, the Langmuir 1:1 model was used.
(§1) Binding of the multispecific antibodies to their respective target antigens, i.e. IL17 and TWEAK, was assessed by Biacore® as described in the general methods section.
(In general: SPR reads the build-up and loss of mass on a sensor chip optically.)

For assay [1], the target named is T2, human IL17 (human, UniProt Q16552 24-155).
T2 construct: for that reason an apparent KD is reported; also called IL17-A
T2 sequence (looked up): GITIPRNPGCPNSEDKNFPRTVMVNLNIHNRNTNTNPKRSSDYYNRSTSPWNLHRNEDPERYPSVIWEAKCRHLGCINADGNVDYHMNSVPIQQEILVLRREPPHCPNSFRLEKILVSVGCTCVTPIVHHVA
Kind of assay: SPR (Biacore), bispecific antibody captured by anti-human F(ab')2, human IL17 as analyte, 1:1 Langmuir. On the procedure: (§2) Around 6000 resonance units (RU) of the capturing system (15 μg/ml goat anti human F(ab′)2; Order Code: 28958325; GE Healthcare Bio-Sciences AB, Schweden) were coupled on a CMS chip at pH 5.0 by using an amine coupling kit supplied by the GE Healthcare. The sample and system buffer was PBS-T (10 mM phosphate buffered saline including 0.05% Tween 20) pH 7.4. The bispecific antibody was captured by injecting a 50 nM solution for 90 sec at a flow of 10 μl/min. Association was measured by injection human IL17 in various concentrations in solution for 3 min at a flow of 30 μl/min starting with 50 nM in 1:1 serial dilutions. The dissociation phase was monitored for up to 10 min and triggered by switching from the sample solution to running buffer. The surface was regenerated twice by 60 sec wash with a 10 mM glycine pH 2.1 solution at a flow rate of 30 μl/min. Bulk refractive index differences were corrected by subtracting the response obtained from a goat anti human F(ab′)2 surface. Blank injections are also subtracted (=double referencing). For calculation of apparent KD and other kinetic parameters, the Langmuir 1:1 model was used.
as §1

Assay [2] has as its target T2, human IL17. Kind of assay: SPR (Biacore), bispecific antibody captured by anti-human F(ab')2, human IL17 as analyte, 1:1 Langmuir, apparent KD. The procedure: as §2, §1

B1: TweakIL17-0049 (bispecific antibody, human IgG4 S228P, kappa)
light 1: DIVMTQSPLSLPVTPGEPASISCRSSQSLVHSNGDTYFHWYLQKPGQSPQLLIYKVSNRFSGVPDRFSGSGSGTDFTLKISRVEAEDVGVYYCSQTTHAPFTFGQGTKLEIKRTVAAPSVFIFPPSDEQLKSGTASVVCLLNNFYPREAKVQWKVDNALQSGNSQESVTEQDSKDSTYSLSSTLTLSKADYEKHKVYACEVTHQGLSSPVTKSFNRGEC
heavy 1: EVQLVESGGGLVQPGGSLRLSCAASGFSLDSYGVHWVRQATGKGLEWVSVIWSDGTTTYNSALKSRFTISRENAKNSLYLQMNSLRAGDTAVYYCARDTHYRLYYYAMDYWGQGTTVTVSSASTKGPSVFPLAPCSRSTSESTAALGCLVKDYFPEPVTVSWNSGALTSGVHTFPAVLQSSGLYSLSSVVTVPSSSLGTKTYTCNVDHKPSNTKVDKRVESKYGPPCPPCPAPEFEGGPSVFLFPPKPKDTLMISRTPEVTCVVVDVSQEDPEVQFNWYVDGVEVHNAKTKPREEQFNSTYRVVSVLTVLHQDWLNGKEYKCKVSNKGLPSSIEKTISKAKGQPREPQVCTLPPSQEEMTKNQVSLSCAVKGFYPSDIAVEWESNGQPENNYKTTPPVLDSDGSFFLVSRLTVDKSRWQEGNVFSCSVMHEALHNHYTQKSLSLSLGK
light 2: DIQMTQSPSSVSASVGDRVTITCQASQNIYSNLAWYQQKPGKAPKLLIYTASYLASGVPSRFSGSGSGTDYTLTISSLQPEDFATYYCQTAYYNSRPDTVAFGGGTKVEIKSSASTKGPSVFPLAPCSRSTSESTAALGCLVKDYFPEPVTVSWNSGALTSGVHTFPAVLQSSGLYSLSSVVTVPSSSLGTKTYTCNVDHKPSNTKVDKRVESKYG
heavy 2: QVQLVQSGAEVKKPGSSVKVSCKASGFDFSTYYMSWVRQAPGQGLEWMGTVYVRQGTTYYASWLNGRVTITADESTSTAYMELSSLRSEDTAVYYCARGGYNYDDAFVIWGQGTLVTVSSASVAAPSVFIFPPSDEQLKSGTASVVCLLNNFYPREAKVQWKVDNALQSGNSQESVTEQDSKDSTYSLSSTLTLSKADYEKHKVYACEVTHQGLSSPVTKSFNRGECPPCPPCPAPEFEGGPSVFLFPPKPKDTLMISRTPEVTCVVVDVSQEDPEVQFNWYVDGVEVHNAKTKPREEQFNSTYRVVSVLTVLHQDWLNGKEYKCKVSNKGLPSSIEKTISKAKGQPREPQVYTLPPCQEEMTKNQVSLWCLVKGFYPSDIAVEWESNGQPENNYKTTPPVLDSDGSFFLYSRLTVDKSRWQEGNVFSCSVMHEALHNHYTQKSLSLSLGK
notes: also called TweakIL17-0049 (control)
With B1, in the assay with TWEAK, the Kd is less than 100 pM; the koff – broadly, the first-order rate constant of dissociation – worked out at 4.82e-05 s⁻¹; the kon (commonly a measure of how fast the partners come together) turned out to be 1.27e+06 M⁻¹ s⁻¹. Also, in the assay with human IL17 [1], the koff was determined as 0.000123 s⁻¹ and the kon is 1.34e+06 M⁻¹ s⁻¹. Also, the Kd with human IL17 [2] was less than 100 pM.

B2: TweakIL17-0132 (bispecific antibody, human IgG4 S228P, kappa)
light 1: DIVMTQSPLSLPVTPGEPASISCRSSQSLVHSNGDTYFHWYLQKPGQSPQLLIYKVSNRFSGVPDRFSGSGSGTDFTLKISRVEAEDVGVYYCSQTTHAPFTFGQGTKLEIKRTVAAPSVFIFPPSDKRLKSGTASVVCLLNNFYPREAKVQWKVDNALQSGNSQESVTEQDSKDSTYSLSSTLTLSKADYEKHKVYACEVTHQGLSSPVTKSFNRGEC
heavy 1: EVQLVESGGGLVQPGGSLRLSCAASGFSLDSYGVHWVRQATGKGLEWVSVIWSDGTTTYNSALKSRFTISRENAKNSLYLQMNSLRAGDTAVYYCARDTHYRLYYYAMDYWGQGTTVTVSSASTKGPSVFPLAPCSRSTSESTAALGCLVEDYFPEPVTVSWNSGALTSGVHTFPAVLQSSGLYSLSSVVTVPSSSLGTKTYTCNVDHKPSNTKVDERVESKYGPPCPPCPAPEFEGGPSVFLFPPKPKDTLMISRTPEVTCVVVDVSQEDPEVQFNWYVDGVEVHNAKTKPREEQFNSTYRVVSVLTVLHQDWLNGKEYKCKVSNKGLPSSIEKTISKAKGQPREPQVCTLPPSQEEMTKNQVSLSCAVKGFYPSDIAVEWESNGQPENNYKTTPPVLDSDGSFFLVSRLTVDKSRWQEGNVFSCSVMHEALHNHYTQKSLSLSLGK
light 2: DIQMTQSPSSVSASVGDRVTITCQASQNIYSNLAWYQQKPGKAPKLLIYTASYLASGVPSRFSGSGSGTDYTLTISSLQPEDFATYYCQTAYYNSRPDTVAFGGGTKVEIKSSASTKGPSVFPLAPCSRSTSESTAALGCLVKDYFPEPVTVSWNSGALTSGVHTFPAVLQSSGLYSLSSVVTVPSSSLGTKTYTCNVDHKPSNTKVDKRVESKYG
heavy 2: QVQLVQSGAEVKKPGSSVKVSCKASGFDFSTYYMSWVRQAPGQGLEWMGTVYVRQGTTYYASWLNGRVTITADESTSTAYMELSSLRSEDTAVYYCARGGYNYDDAFVIWGQGTLVTVSSASVAAPSVFIFPPSDEQLKSGTASVVCLLNNFYPREAKVQWKVDNALQSGNSQESVTEQDSKDSTYSLSSTLTLSKADYEKHKVYACEVTHQGLSSPVTKSFNRGECPPCPPCPAPEFEGGPSVFLFPPKPKDTLMISRTPEVTCVVVDVSQEDPEVQFNWYVDGVEVHNAKTKPREEQFNSTYRVVSVLTVLHQDWLNGKEYKCKVSNKGLPSSIEKTISKAKGQPREPQVYTLPPCQEEMTKNQVSLWCLVKGFYPSDIAVEWESNGQPENNYKTTPPVLDSDGSFFLYSRLTVDKSRWQEGNVFSCSVMHEALHNHYTQKSLSLSLGK
notes: CrossMAb CH1-CL, knob-into-hole with S354C/Y349C
As to B2, in the assay with TWEAK, the Kd was less than 100 pM, the koff is 4.79e-05 s⁻¹ and the kon stood at 1.17e+06 M⁻¹ s⁻¹. In the assay with human IL17 [1], this molecule yielded a koff of 0.00013 s⁻¹ and a kon of 1.39e+06 M⁻¹ s⁻¹. In addition, the Kd in the assay with human IL17 [2] is less than 100 pM.

B3: TweakIL17-0130 (bispecific antibody, human IgG4 S228P, kappa)
light 1: DIVMTQSPLSLPVTPGEPASISCRSSQSLVHSNGDTYFHWYLQKPGQSPQLLIYKVSNRFSGVPDRFSGSGSGTDFTLKISRVEAEDVGVYYCSQTTHAPFTFGQGTKLEIKRTVAAPSVFIFPPSDKQLKSGTASVVCLLNNFYPREAKVQWKVDNALQSGNSQESVTEQDSKDSTYSLSSTLTLSKADYEKHKVYACEVTHQGLSSPVTKSFNRGEC
heavy 1: EVQLVESGGGLVQPGGSLRLSCAASGFSLDSYGVHWVRQATGKGLEWVSVIWSDGTTTYNSALKSRFTISRENAKNSLYLQMNSLRAGDTAVYYCARDTHYRLYYYAMDYWGQGTTVTVSSASTKGPSVFPLAPCSRSTSESTAALGCLVKDYFPEPVTVSWNSGALTSGVHTFPAVLQSSGLYSLSSVVTVPSSSLGTKTYTCNVDHKPSNTKVDERVESKYGPPCPPCPAPEFEGGPSVFLFPPKPKDTLMISRTPEVTCVVVDVSQEDPEVQFNWYVDGVEVHNAKTKPREEQFNSTYRVVSVLTVLHQDWLNGKEYKCKVSNKGLPSSIEKTISKAKGQPREPQVCTLPPSQEEMTKNQVSLSCAVKGFYPSDIAVEWESNGQPENNYKTTPPVLDSDGSFFLVSRLTVDKSRWQEGNVFSCSVMHEALHNHYTQKSLSLSLGK
light 2: DIQMTQSPSSVSASVGDRVTITCQASQNIYSNLAWYQQKPGKAPKLLIYTASYLASGVPSRFSGSGSGTDYTLTISSLQPEDFATYYCQTAYYNSRPDTVAFGGGTKVEIKSSASTKGPSVFPLAPCSRSTSESTAALGCLVKDYFPEPVTVSWNSGALTSGVHTFPAVLQSSGLYSLSSVVTVPSSSLGTKTYTCNVDHKPSNTKVDKRVESKYG
heavy 2: QVQLVQSGAEVKKPGSSVKVSCKASGFDFSTYYMSWVRQAPGQGLEWMGTVYVRQGTTYYASWLNGRVTITADESTSTAYMELSSLRSEDTAVYYCARGGYNYDDAFVIWGQGTLVTVSSASVAAPSVFIFPPSDEQLKSGTASVVCLLNNFYPREAKVQWKVDNALQSGNSQESVTEQDSKDSTYSLSSTLTLSKADYEKHKVYACEVTHQGLSSPVTKSFNRGECPPCPPCPAPEFEGGPSVFLFPPKPKDTLMISRTPEVTCVVVDVSQEDPEVQFNWYVDGVEVHNAKTKPREEQFNSTYRVVSVLTVLHQDWLNGKEYKCKVSNKGLPSSIEKTISKAKGQPREPQVYTLPPCQEEMTKNQVSLWCLVKGFYPSDIAVEWESNGQPENNYKTTPPVLDSDGSFFLYSRLTVDKSRWQEGNVFSCSVMHEALHNHYTQKSLSLSLGK
notes: as for B2
In the assay with TWEAK, B3 had a Kd of less than 100 pM, a koff of 2.83e-05 s⁻¹ and a kon of 859000 M⁻¹ s⁻¹. Moreover, in the assay with human IL17 [1], the koff was determined as 0.000194 s⁻¹ and the kon was 1.04e+07 M⁻¹ s⁻¹. Also, in the assay with human IL17 [2], the Kd is less than 100 pM.

Source of the values: patent publication US20170129962A1 (Hoffmann-La Roche, published 2017).
